Source: patent US20050265970A1 (UNIVERSITY OF CHICAGO, published 2005)
Values belong to the binder of their own block, whether it stands above or below them. Ends that are not written are not given here.

B5: GST-MKK7 (GST-JNKK2; human JNKK2 in pGEX-2T) (enzyme)
chain: MAASSLEQKLSRLEAKLKQENREARRRIDLNLDISPQRPRPTLQLPLANDGGSRSPSSESSPQHPTPPARPRHMLGLPSTLFTPRSMESIEIDHKLQEIMKQTGYLTIGGQRYQAEINDLENLGEMGSGTCGPVWKMRFRKTGHVIAVKQMRRSGNKEENKRILMDLDVVLKSHDCPYIVQCFGTFITNTDVFIAMELMGTCAEKLKKRMQGPIPERILGKMTVAIVKALYYLKEKHGVIHRDVKPSNILLDERGQIKLCDFGISGRLVDSKAKTRSAGCAAYMAPERIDPPDPTKPDYDIRADVWSLGISLVELATGQFPYKNCKTDFEVLTKVLQEEPPLLPGHMGFSGDFQSFVKDCLTKDHRKRPKYNKLLEHSFIKRYETLEVDVASWFKDVMAKT
notes: On glutathione beads in pull-downs; also called recombinant JNKK2; not shown: glutathione S-transferase encoded by the pGEX-2T vector

How the values were obtained:
[1] = target: T1, GST-Gadd45β (full-length murine Gadd45β directly fused to GST) (murine, UniProt P22339 1-160); assay: GST pull-down of 35S-labeled in vitro translated MKK7 peptides
T1 construct: range 1-160; Made in E. coli BL21, on glutathione-sepharose beads in pull-downs; purified protein in kinase assays; not shown: glutathione S-transferase encoded by the pGEX-3X vector
T1 sequence (looked up): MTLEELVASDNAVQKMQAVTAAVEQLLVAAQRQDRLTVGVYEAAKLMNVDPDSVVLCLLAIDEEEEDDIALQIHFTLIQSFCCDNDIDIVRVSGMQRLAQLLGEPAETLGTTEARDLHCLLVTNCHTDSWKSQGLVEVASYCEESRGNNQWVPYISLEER

[2] = target: B5; assay: GST pull-down with GST-JNKK2 beads and 35S-labeled in vitro translated Gadd45β truncations
[3] = target: T2, endogenous MEKK1 of 3DO cells (UniProt P53349 2-1493, limits assumed); assay: co-immunoprecipitation of endogenous proteins from 3DO cells
T2 sequence (looked up): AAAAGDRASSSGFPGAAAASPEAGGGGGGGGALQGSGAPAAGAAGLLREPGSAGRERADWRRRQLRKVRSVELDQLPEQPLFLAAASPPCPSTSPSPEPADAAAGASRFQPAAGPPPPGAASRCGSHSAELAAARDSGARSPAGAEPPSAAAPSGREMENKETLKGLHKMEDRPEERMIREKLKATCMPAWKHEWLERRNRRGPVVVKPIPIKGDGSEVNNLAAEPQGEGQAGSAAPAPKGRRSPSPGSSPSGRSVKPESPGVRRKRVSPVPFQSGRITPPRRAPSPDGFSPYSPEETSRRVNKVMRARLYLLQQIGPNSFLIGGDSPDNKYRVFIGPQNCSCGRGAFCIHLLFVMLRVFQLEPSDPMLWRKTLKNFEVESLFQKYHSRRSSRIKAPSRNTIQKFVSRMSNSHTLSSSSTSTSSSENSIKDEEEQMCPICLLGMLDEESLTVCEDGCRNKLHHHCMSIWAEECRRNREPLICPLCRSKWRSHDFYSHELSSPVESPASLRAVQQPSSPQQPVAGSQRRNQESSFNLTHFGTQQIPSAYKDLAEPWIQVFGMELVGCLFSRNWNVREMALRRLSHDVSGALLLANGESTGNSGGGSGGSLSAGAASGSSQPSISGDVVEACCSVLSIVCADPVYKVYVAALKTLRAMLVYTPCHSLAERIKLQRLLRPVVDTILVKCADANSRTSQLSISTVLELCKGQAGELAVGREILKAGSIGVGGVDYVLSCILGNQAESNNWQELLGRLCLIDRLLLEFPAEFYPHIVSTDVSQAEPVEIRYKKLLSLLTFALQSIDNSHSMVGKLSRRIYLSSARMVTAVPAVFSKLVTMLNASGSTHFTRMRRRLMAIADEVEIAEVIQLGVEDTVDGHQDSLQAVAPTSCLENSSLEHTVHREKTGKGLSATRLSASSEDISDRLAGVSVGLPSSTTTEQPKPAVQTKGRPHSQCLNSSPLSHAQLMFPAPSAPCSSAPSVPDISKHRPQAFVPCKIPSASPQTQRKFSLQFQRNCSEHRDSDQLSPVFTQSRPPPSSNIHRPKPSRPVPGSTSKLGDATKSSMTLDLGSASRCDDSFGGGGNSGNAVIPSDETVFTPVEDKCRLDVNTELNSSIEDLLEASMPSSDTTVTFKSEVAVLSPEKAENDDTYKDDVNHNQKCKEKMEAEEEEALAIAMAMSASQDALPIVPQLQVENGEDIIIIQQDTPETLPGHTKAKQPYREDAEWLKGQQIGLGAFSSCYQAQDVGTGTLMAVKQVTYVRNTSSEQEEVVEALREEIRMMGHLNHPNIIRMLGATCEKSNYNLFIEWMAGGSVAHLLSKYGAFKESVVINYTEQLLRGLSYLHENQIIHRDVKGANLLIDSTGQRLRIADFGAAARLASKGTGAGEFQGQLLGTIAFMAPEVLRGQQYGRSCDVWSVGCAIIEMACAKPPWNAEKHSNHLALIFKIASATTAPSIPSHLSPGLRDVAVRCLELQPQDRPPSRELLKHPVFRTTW

[4] = target: T3, GST (glutathione-S-transferase, control) (UniProt P08515 1-218 = GST); assay: GST pull-down of 35S-labeled in vitro translated protein
T3 construct: Control beads in GST pull-downs
Protocol: Binding assays were performed according to standard procedures, and ³⁵S-labeled proteins that bound to beads, as well as 2 μl of each in vitro translation mix (input), were then resolved by SDS polyacrylamide gel electrophoresis.

[5] = target: T4, Gadd45β (1-68) (EcoRV digestion), in vitro translated as GFP fusion (murine, UniProt P22339 1-68, 35S-methionine label); assay: GST pull-down with GST-JNKK2 beads and 35S-labeled in vitro translated Gadd45β truncations
T4 construct: range 1-68; not shown: GFP of pEGFP-N1 (Clontech) with a short oligonucleotide-encoded linker
T4 sequence (looked up): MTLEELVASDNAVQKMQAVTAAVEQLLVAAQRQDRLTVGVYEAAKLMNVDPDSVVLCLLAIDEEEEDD

T3 sequence (P08515 whole entry): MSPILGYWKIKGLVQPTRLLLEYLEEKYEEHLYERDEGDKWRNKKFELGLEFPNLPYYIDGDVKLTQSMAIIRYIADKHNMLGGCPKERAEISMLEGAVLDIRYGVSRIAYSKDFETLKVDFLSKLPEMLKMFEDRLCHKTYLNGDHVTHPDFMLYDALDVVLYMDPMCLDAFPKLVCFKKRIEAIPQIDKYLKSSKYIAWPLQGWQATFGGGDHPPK

B1: MKK7 peptide 2 (aa 142-166 of MKK7/JNKK2), in vitro translated, fused to eGFP (peptide)
chain: TGHVIAVKQMRRSGNKEENKRILMD
modifications: also: 35S-methionine label, place not given here, eGFP fusion, side not given here
notes: not shown: enhanced green fluorescent protein (eGFP, Clontech) fusion partner
binding result [1]: no binding

B2: Gadd45β (114-160), in vitro translated as GFP fusion (other, murine, UniProt P22339 114-160, looked up)
chain: ARDLHCLLVTNCHTDSWKSQGLVEVASYCEESRGNNQWVPYISLEER
modifications: cysteine pairing not given here; also: GFP fusion, letters not given here, 35S-methionine label
notes: The two places differ by one residue at the N-terminal limit; also called Gadd45β(113-160) in the methods; not shown: GFP of pEGFP-N1 (Clontech) with a short oligonucleotide-encoded linker
binding result [2]: no binding

Binder: B5
binding result [5]: no binding

Next, values leading:

binding result [3]: no binding
B3: Gadd45β in cells (untagged full-length: endogenous in 3DO cells and MEFs, or stably expressed in 3DO-IκBαM-Gadd45β clones) (other, UniProt P22339 1-160, looked up)
chain: MTLEELVASDNAVQKMQAVTAAVEQLLVAAQRQDRLTVGVYEAAKLMNVDPDSVVLCLLAIDEEEEDDIALQIHFTLIQSFCCDNDIDIVRVSGMQRLAQLLGEPAETLGTTEARDLHCLLVTNCHTDSWKSQGLVEVASYCEESRGNNQWVPYISLEER
notes: also called endogenous Gadd45β

binding result [4]: no binding
B4: FL-JNKK2, JNKK2 (1-401; FL), 35S-labeled in vitro translated full-length human JNKK2/MKK7 (enzyme)
chain: MAASSLEQKLSRLEAKLKQENREARRRIDLNLDISPQRPRPTLQLPLANDGGSRSPSSESSPQHPTPPARPRHMLGLPSTLFTPRSMESIEIDHKLQEIMKQTGYLTIGGQRYQAEINDLENLGEMGSGTCGPVWKMRFRKTGHVIAVKQMRRSGNKEENKRILMDLDVVLKSHDCPYIVQCFGTFITNTDVFIAMELMGTCAEKLKKRMQGPIPERILGKMTVAIVKALYYLKEKHGVIHRDVKPSNILLDERGQIKLCDFGISGRLVDSKAKTRSAGCAAYMAPERIDPPDPTKPDYDIRADVWSLGISLVELATGQFPYKNCKTDFEVLTKVLQEEPPLLPGHMGFSGDFQSFVKDCLTKDHRKRPKYNKLLEHSFIKRYETLEVDVASWFKDVMAKT
modifications: 35S-methionine label
notes: Reticulocyte lysate translation from pBS-JNKK2; also called full-length MKK7; SacII (FL)
